This is an account of results in paper PMC6291932.

The stoichiometry N is the number of molecules, sites or subunits per partner or assembly.

This test addresses recombinant zika virus (ZIKV) non-structural 1 (NS1) protein (Zika virus). The test can be described thus: SEC; Superdex 200 10/300, elution in 50 mM CAPS pH 11.0; supernatants of NS1 inclusion bodies subjected to 2.4 kbar/0.4 kbar at pH 10.0 to 12.5, with or without Arg. Background: In gel filtration, larger molecules generally elute earlier.

Regarding “recombinant zika virus (ZIKV) non-structural 1 (NS1) protein (natural protein)”, the stoichiometry N amounted to 2.
